These results are taken from the DeepSol protein solubility set.

This series can be described thus: soluble on expression in E. coli; label from the status in PepcDB or PDB records.
With “MQDADKLPHTKVTLVAPPQVHPHEQATKSGPKVVEFTMTIEEKKMVIDDKGTTLQAMTFNGSMPGPTLVVHEGDYVQLTLVNPATNAMPHNVDFHGATGALGGAKLTNVNPGEQATLRFKADRSGTFVYHCAPEGMVPWHVVSGMSGTLMVLPRDGLKDPQGKPLHYDRAYTIGEFDLYIPKGPDGKYKDYATLAESYGDTVQVMRTLTPSHIVFNGKVGALTGANALTAKVGETVLLIHSQANRDTRPHLIGGHGDWVWETGKFANPPQRDLETWFIRGGSAGAALYTFKQPGVYAYLNHNLIEAFELGAAGHIKVEGKWNDDLMKQIKAPAPIPR”, the “soluble on expression in E. coli” value was “soluble”. For “MAHHHHHHMHRASRIAAAPFKSVLRRHKHHPEGLPLYNEMSKQWLCREGERWWILDAKGEQLPRVAAVAAQYITGQHRPDFTPGMISGDHVIIVNIKDVVMVGDEWIRVPITWQTAYPGGKYRIRLTDMYERDPCMLMWWFLKDEVNRHFVRKLKTRVAPLEKAWLYEDSVHPHGEKNPRPLCWSDPVVRGWKYTDPQFIRRWKPNEFIT” the value was “not soluble”.

For “MGSDKIHHHHHHMDIKLKDFEGPLDLLLHLVSKYQVDIYEVPITEVIEQYLAYIATLQAMRLEVAGEYMLMASQLMVIKSRRLLPKVVEQIDPEDDPEMDLLDQLEEYRKFKLLSEKLGEQHDERANYFSKPKLDLIYDDVQLAKDKTIIDIFLAFSKVMAEKQASLRQSHATIARDEYKIEDMMDFVRSRFETGPRLELRQLFQESQDVNEMITIFLATLELVKVHEIVLEQTETFGDIYLVRSEDESLS”, the “soluble on expression in E. coli” value was “not soluble”. As for “MGSDKIHHHHHHMHVKRAATAGFCMGVGLALKKLDRELDNNAKDIATLGPIIHNPQVLRRYEQKGVRCYTDPAEARSGQRVVIRAHGIPEETESALAAAGVDLVDATCPKVKRAQLGIARQREKGRTLLLFGEHDHPEVQGLLSYAGEGAVVFGSLEELQNGPLEDDRHYFLAAQTTQDKHAFTSVIEWVRRRFGDHVPVLDTICDATRERQDEAIAIARSVDVMVVVGGFASGNTRRLAEVAQAQGVPTYHVETPDQLPLDAIRGYGAAGLTAGASTPKSIIDETQKLLESL”, the “soluble on expression in E. coli” value is “not soluble”. For “MSLKRFVAEKMDNQDHWDLNIAPLTNKHIAIVGAGPAGAQAAIELRRQGHEVTIYEKLDVYGGMMRVGIPEYRLPRDVIDFEYSYLAMLGIKTQFGVEIGKDISFDTLRSEHDAVILAHGAHVGSIIPLPGHDNDGVFSAVEYLKEISETRQFPRACKRVMVIGGGDVAMDCARSSWRIGASDVYQCSLESLESLPASQIEIDESLEEGVEFNAGWGPVAIEHENGKVTGITIKKVLSIFDEQGNFAPQYSEESKTISVDTVVFATGQIVADITDGALEQTRGGRYVVDKQTLASSLEDVFVAGDACGGNIVIEAMALGRKAAMSVERFLTARPLTEDRDFEQEYSYSSRLDVPLPKGTVDTPRLHGELRDAEERKQDFAQVDLGFTEEQIKQEASRCLQCSCKLCMTECIMMNDFSDCPKTIFSDFVNNKSMDPLLAYSCNACDQCTIVCPKDFPMKEMFLGARTDFVKANNGESPMPGHKAINMHQKLGFSKIFTMAKRAVSTKEGHHHHHH” the value was “soluble”; for “MQPMTARFDLFVVGSGFFGLTIAERVATQLDKRVLVLERRPHIGGNAYSEAEPQTGIEVHKYGAHLFHTSNKRVWDYVRQFTDFTDYRHRVFAMHNGQAYQFPMGLGLVSQFFGKYFTPEQARQLIAEQAAEIDTADAQNLEEKAISLIGRPLYEAFVKGYTAKQWQTDPKELPAANITRLPVRYTFDNRYFSDTYEGLPTDGYTAWLQNMAADHRIEVRLNTDWFDVRGQLRPGSPAAPVVYTGPLDRYFDYAEGRLGWRTLDFEVEVLPIGDFQGTAVMNYNDLDVPYTRIHEFRHFHPERDYPTDKTVIMREYSRFAEDDDEPYYPINTEADRALLATYRARAKSETASSKVLFGGRLGTYQYLDMHMAIASALNMYDNVLAPHLRDGVPLLQDGA”, “soluble”.

Consider “AGWQSYVDNLMCDGCCQEAAIVGYCDAKYVWAATAGGVFQSITPIEIDMIVGKDREGFFTNGLTLGAKKCSVIRDSLYVDGDCTMDIRTKSQGGEPTYNVAVGRAGRALVIVMGKEGVHGGTLNKKAYELALYLRRSDV”, for which the “soluble on expression in E. coli” value is “soluble”.

In the case of “MDSQKFIDLCKKHVVDFANSQLDYTDQKKISESDIYVVWLAKTLQNNKALLSTNLFDGMYYEVTFNGDKNELYFDAYKKWRNIRFDVTEGGDQNG”, the “soluble on expression in E. coli” value is “not soluble”. For “MLRVLVRTGSEACRAVSTSTAVLSVHPVVKSEDLSAKEIWDRRSKLRVPKLQKDEQLSSKVYFAPEWDLEKKPNLDEGFVNPLKGYGMTPEKWEYYNKVVWPPNYIVPETGLPKPKEVFHCKESVHFSPKRMWAACQLVWKMNVDEAITQLDMQQLKACNLLMDTIKKAKSRAADEFHIEYPSQMYVADAFPVQSNIVKGARRHAHDNWNTIRYRYIHIFVRLEEGPAPQQKQRHPQKNGWDHMDEYYNYLRSRTVKYSI”, the “soluble on expression in E. coli” value is given as “not soluble”. For “MGSDKIHHHHHHMESLKKCFDLQGKEIVSIVGSGGKTSLMWALAKTYRKEAVLVSTTTKIGFPQRQLYDYFYTNHFEKITPNICGITLAGTAINNQTKLTMPAMTSFQTLFQHFTKVFLEADGSKQRPLKGWSSYEPVILKETTTTIGVLPISVIGQKIDETTIHRLPLFLELTDAQLQEPITETLLAQLIDHPKGLFKESQGQRILCLNQTHTRREFVQAMNVCLQLPKSCFEKLDKIIACNMELEKGLILWEKSVKTSKKN” the value was “not soluble”. For “MSSSTSPFLRAISRLIKASFFALSKFSLNCMYKSIQAELLKITYLAFMVKAMIFIPKEKHVYSFGPDMKEVARAKPGEIIVFETLDALGGQIRSEEDTVEKIDFSRVNPATGPVYIEGAEKGKILKVKILEIEVNDRGVIVTAPGAGVLGDLVKAPKTKVCRIANGFVQFGEFKIPVRPMIGVIGVASPEEIPTGTPGRHGGNMDTNLITEGSTVYFPIFKDGAYLALGDLHAVMADGEVCVSACEVSGKVTVKTEVLSGSIEWPIVETSDAYYILVSEEDLEDAVREAVKQGVDILRRANELSWDEAYMLASLIMDVQISQLVDPRKTVRVRIPKQYLKMSLFLEHHHHHH” the value was “not soluble”; for “PHDFPHFDKERYARTTRKVIARMNQELASHEQIKGVLMIKEPWSIENGVLTPTLKIKRHVLEQKYHELGHNWPKDELVLWEEDL”, “not soluble”. With “MSLTATTDGSTGASLRPLAASASDTDITIPAAAAGVPEAAARATRRATDFLLAKQDAEGWWKGDLETNVTMDAEDLLLRQFLGIQDEETTRAAALFIRGEQREDGTWATFYGGPGELSTTIEAYVALRLAGDSPEAPHMARAAEWIRSRGGIASARVFTRIWLALFGWWKWDDLPELPPELIYFPTWVPLNIYDFGCWARQTIVPLTIVSAKRPVRPAPFPLDELHTDPARPNPPRPLAPVASWDGAFQRIDKALHAYRKVAPRRLRRAAMNSAARWIIERQENDGCWGGIQPPAVYSVIALYLLGYDLEHPVMRAGLESLDRFAVWREDGARMIEACQSPVWDTCLATIALADAGVPEDHPQLVKASDWMLGEQIVRPGDWSVKRPGLPPGGWAFEFHNDNYPDIDDTAEVVLALRRVRHHDPERVEKAIGRGVRWNLGMQSKNGAWGAFDVDNTSAFPNRLPFCDFGEVIDPPSADVTAHVVEMLAVEGLAHDPRTRRGIQWLLDAQETDGSWFGRWGVNYVYGTGSVIPALTAAGLPTSHPAIRRAVRWLESVQNEDGGWGEDLRSYRYVREWSGRGASTASQTGWALMALLAAGERDSKAVERGVAWLAATQREDGSWDEPYFTGTGFPWDFSINYNLYRQVFPLTALGRYVHGEPFAKKPRAADAPAEAAPAEVKGSEGHHHHHH”, the “soluble on expression in E. coli” value is recorded as “soluble”. Take “MSLILVKDAIITGKKQDLLVEGNIIKKIGNISISEVSKDETEIIDGKNCVLIPGLINTHTHVPMSLFRGVADDIPLMEWLSGHIWPMESKLNEKIVYAGTLLGTIEMIKSGTTAFNDMYFFLDSIIKAVDETGIRSTIAYGMIDLFDEEKREKELKTAKESLEMIKNLNNSRITGALGPHAPYTCSKEILESTNALAREYNVPIHIHMNETLDEINQVVEKTGMRPFEYLNSFGFFDNVNTICAHCVHLSASEIQIMKEKNIFAAHNPVSNLKLASGVSPVLKLLENNIPVTLGTDGCGSNNNMNLFEEIKAAALIHKGVNLNPVAVIAKDAFDFGTKNGAKALNINSGEIKEGKLADFVLINMKKPYLTPKENIESHLVYSFNGVVDKVVIDGKLVLNDGKMVNIDEEKVYEIAEEAYFELANEGHHHHHH”: the “soluble on expression in E. coli” value was “not soluble”.

Take “MKPATFKEAVVLYEGMIVNQIKKLGIRKDYEEYYQCGLIGLWHAYERFDEKKGYFPAYAVVTVRGYILERLKKEFAVQERCVCVGEYEDIFHFEDVEIRVKDFMSVLDEKEKYIIFERFFVGKTMGEIALETEMTYYQVRWMYRQALEKMRDSVKG”: the “soluble on expression in E. coli” value is listed as “not soluble”. As to “MPLTGEYEPSPSKWAADQAELMESTDGAKGTTLGGRPVVLLTTRGAKSGKIRKTPLMRVEHDGTYAIVASLGGAPKNPVWYYNVKAEPHVELRDGSATQDMVAREVTGDERATWWDRAVAAFPDYAEYQKKTDREIPVFVLEPA”, the “soluble on expression in E. coli” value is listed as “not soluble”. For “SLSTLKILLCTDNHLGYKENNSIQKKDSFNSFEEILFIAKKLNVDMILNSGDLFHKNKVSEYTLFKSMYIIRKAGKKLIPFYTIHGNHDYPYSYEYISPLDILNISNLINYIGKNNLNNIVVKPILLNKYKSKISIYAVGWMKDERLYRSFENNEVKFILPSDYKNRINILVLHQNRYIRNAYGNNTKNFIKESFIPKFIDLVIWGHEHFSKPYLEESILNSFYNIQLGSSVRTSICPNEYGDKFIGLLEIKNQRFRFLKINLETVRPFEMKDIKLADYELNFKSESVLKEFLHEQTHAILEKIKNNFSHE” the value was “not soluble”; for “MAHHHHHHMLKECDFFSDSYGCIITKSIGYQAPFPLVRLSNGRSTKIPDGACVQGACFVSFGADHTGSRGRLLTMDVSARASSVSFLQLLSSSCPPVTLEPEVEYVSKIETTETASAVVTRGGGNRWSTSVYVQGEDVPDTAYSRRVHFHRASVASLFGFSLWLMEVAKDDYGAQAVHRYSLSTALTGGVSESTLVSANLGRPLDIIALSEDTALVLGTNGVAMADRRQRASDILFFSNLLNGGATGDRQLLTFGEDYTLRAYDLRDVSAPLFQATSATYLRIKSEIDTRASLLVTSDITGVFDVLHVTTVASLQHSGDTVLDAAVLPSRHNGVRVCTSTGSGMIYDWTVT”, “not soluble”; for “KKMAFTLADRVTEEMLADKAALVVEVVEENYHDAPIVGIAVVNEHGRFFLRPETALADPQFVAWLGDETKKKSMFDSKRAAVALKWKGIELCGVSFDLLLAAYLLDPAQGVDDVAAAAKMKQYEAVRPDEAVYGKGAKRAVPDEPVLAEHLVRKAAAIWELERPFLDELRRNEQDRLLVELEQPLSSILAEMEFAGVKVDTKRLEQMGKELAEQLGTVEQRIYELAGQEFNINSPKQLGVILFEKLQLPVLKKTKTGYSTSADVLEKLAPYHEIVENILHYRQLGKLQSTYIEGLLKVVRPATKKVHTIFNQALTQTGRLSSTEPNLQNIPIRLEEGRKIRQAFVPSESDWLIFAADYSQIELRVLAHIAEDDNLMEAFRRDLDIHTKTAMDIFQVSEDEVTPNMRRQAKAVNYGIVYGISDYGLAQNLNISRKEAAEFIERYFESFPGVKRYMENIVQEAKQKGYVTTLLHRRRYLPDITSRNFNVRSFAERMAMNTPIQGSAADIIKKAMIDLNARLKEERLQAHLLLQVHDELILEAPKEEMERLCRLVPEVMEQAVTLRVPLKVDYHYGSTWYDAK”, “soluble”.
